Laboratory results reported in PMC9599533.
Values joined by “and” are separate entries in the source; they are usually repeats but may differ in a detail not shown here. Equal values may be shown once.

How the values were obtained:
[1] = target: M. tuberculosis open gate 20S core particle (20SOG CP) (M. tuberculosis) (UniProt P9WHU1); test: cryo-EM structure
[2] = target: Mpa_(C-EXT) (mycobacterial proteasome ATPase Mpa with a GGGGS linker inserted between Thr601 and Glu (M. tuberculosis) (UniProt P9WQN5)); test: cryo-EM structure

With “Mpa_(C-EXT) (mycobacterial proteasome ATPase Mpa with a GGGGS linker inserted between Thr601 and Glu (from UniProt P9WQN5 1-609) (enzyme)” the percent of 20SOG CPs complexed [1] was 50% and 40% and the stoichiometry N [2] was 6.
